The values below come from US20200299396A1.

For this test, the target named is human TNFR1 on the cellular surface of HeLa, HT1080 and Kym-1 cells (human) (UniProt P19438). As to the kind of experiment: cell-based or functional assay.
Chain of human TNFR1 on the cellular surface of HeLa, HT1080 and Kym-1 cells (human) (P19438 30-455 limits assumed): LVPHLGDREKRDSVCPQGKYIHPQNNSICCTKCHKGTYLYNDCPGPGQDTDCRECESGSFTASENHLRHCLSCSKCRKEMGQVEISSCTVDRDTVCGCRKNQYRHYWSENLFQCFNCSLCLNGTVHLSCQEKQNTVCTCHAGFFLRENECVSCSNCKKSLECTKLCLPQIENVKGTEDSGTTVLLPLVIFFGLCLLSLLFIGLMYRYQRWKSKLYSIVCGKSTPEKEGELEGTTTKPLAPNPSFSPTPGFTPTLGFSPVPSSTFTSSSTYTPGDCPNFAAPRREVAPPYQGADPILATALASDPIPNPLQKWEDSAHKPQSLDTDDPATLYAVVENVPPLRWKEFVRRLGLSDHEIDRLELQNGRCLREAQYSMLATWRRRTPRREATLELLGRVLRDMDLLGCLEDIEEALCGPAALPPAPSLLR

ATROSAB (antibody) came in with an IC50, Cell death induction [nM] (Kym-1 cells, TNF-induced) of 64.4 nM; an IC50, IL-6 [nM] (IL-6 release from HeLa cells, 0.1 nM TNF) of 165 nM; an IC50, IL-8 [nM] (IL-8 release from HT1080 cells, 0.1 nM TNF) of 84.1 nM.
